Data taken from US20220372549A1, “Thermally Responsive Conjugates” (MIP Diagnostic Limited, priority 2019, published 2022).

Legend:
pyrophosphatase (PPase) = conditions: cited from earlier work
[1] = test system: UltraScript 2.0 Reverse Transcriptase; conditions: 150 ng conjugate, RTase 324 nM, 30 min at 25, 43, 55 and then 35° C.; loss of product peak
Method: The reaction was performed using the UltraScript 2.0 Reverse Transcriptase from PCR Bio (UK), according to the instructions of the manufacturer. General conditions were, for a 20 μl total reaction volume:
RNA=5 μg template plus random hexamer primers, in PCR Bio buffer mix.
Individual reaction vials were kept at the set temperature for 30 min and the reaction allowed to proceed. The temperatures used were 25° C., 43° C., 55° C. and 35° C., the latter being done after the 55° C. step. After each incubation, 1-2 μl of cDNA product was taken for qPCR amplification and quantification. Inhibition detected by observing loss of product peak.

Substance: pyrophosphatase [unconjugated free enzyme]
- optimum temperature (pyrophosphatase (PPase)): 45 °C

Substance: zidovudine-poly-N-isopropylmethacrylamide
- RTase inhibition, thermal reversibility [1]: inhibition was reversible
